Laboratory results taken from patent US11653679B2, “High-purity steviol glycosides” (PureCircle Sdn Bhd, priority 2014, dated 2023).

Assays:
[1] = Sweetness of reb M compared to a 10% sucrose solution
Text: The high purity reb M obtained in this invention, having a molecular weight of 1291.29, a molecular formula of C56H90O33, CAS registry number 1220616-44-3, and the structure presented in FIG. 1, is in the form of a white and odorless powder. The compound is about 200 times sweeter than sugar when compared to a 10% sucrose solution.

[2] = Solubility of reb M in water and solvents; assay type: physicochemical
Procedure: Other properties of the pure reb M compound include a melting point of 249-250° C., and a specific rotation of [α]D^25−19.0° in 50% ethanol (C=1.0). The solubility of reb Min water is around 0.3%, and increases with an increase in temperature.
Reb M is soluble in diluted solutions of methanol, ethanol, n-propanol, and isopropanol. However, it is insoluble in acetone, benzene, chloroform, and ether.

[3] = Heat and pH stability of reb M; assay type: physicochemical
[4] = Transformation of Rubusoside to Stevioside with in-vivo preparations of UGT91D2 (Example 19); assay type: biochemical; settings: per mL of lysate; 1 U transforms 1 μmol of substrate in 1 hour at 30° C. and pH 7.2
Procedure: Activity tests were performed at 5 mL scale with 1000 μL of lysate for the transformation of Rubusoside to Stevioside using 0.5 mM of substrate, 2.5 mM of UDP-Glucose and 3 mM MgCl2 in 50 mM Sodium Phosphate buffer at pH 7.2. Samples were taken and analyzed by HPLC.

[5] = Directed evolution of UGT76G1, Rebaudioside D to Rebaudioside X, round 2 (Example 41); assay type: biochemical; settings: baseline clone Round1-Var94 defined as 100%, 100 μL lysate, 0.5 mM Rebaudioside D, 30° C., pH 7.2
Procedure: Lysis was performed by addition of Bugbuster® Master mix (Novagen®) to the thawed cells and the lysate was recovered by centrifugation. Activity tests were performed with 100 μL of fresh lysate that was added to a solution of Rebaudioside D (final concentration 0.5 mM), MgCl2 (final concentration 3 mM) and UDP-Glucose (final concentration 2.5 mM) in 50 mM phosphate buffer pH 7.2.
The reaction was allowed to run at 30° C. and samples were taken after 2, 4, 7 and 24 h. to determine conversion and initial rate by HPLC (CAD detection) using the analytical method that was described above for the transformation of Rebaudioside D to Rebaudioside X. In parallel the experiments were performed with baseline clone, Round1-Var94. The conversion after 22 h. and initial rate for this baseline clone was defined as 100% and the normalized conversions and initial rates for the round 2 clones are depicted in the following table: […]

[6] = Directed evolution of UGT76G1, Rebaudioside D to Rebaudioside M, round 1 (Example 26); assay type: biochemical; settings: 100 μL fresh lysate, 0.5 mM Rebaudioside D, 30° C., pH 7.2
Summary of the method: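 Cleared cell lysate (Bugbuster) incubated with 0.5 mM Rebaudioside D, 3 mM MgCl2 and 2.5 mM UDP-glucose in 50 mM phosphate pH 7.2 at 30 °C. Samples at 2, 4, 7 and 24 h analysed by HPLC-CAD for conversion and initial rate.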

[7] = Activity of UGT76G1_Sc for conversion of Rebaudioside D to Rebaudioside M (Example 35); assay type: biochemical; settings: 21 h., based on initial concentration of Rebaudioside D
Procedure: UGT76G1_Sc was prepared according to EXAMPLE 34. Activity tests were performed at 2 mL scale with 200 μL of lysate for the transformation of Rebaudioside D using 0.5 mM of substrate, 2.5 mM of UDP-Glucose and 3 mM MgCl2 in 50 mM Sodium Phosphate buffer at pH 7.2. Samples were taken and analyzed by HPLC. The corresponding chromatogram is depicted in FIG. 64.

Question: For C=C1C[C@@]23CC[C@H]4[C@@](C)(CCC[C@@]4(C)C(=O)O[C@@H]4O[C@H](CO)[C@@H](O)[C@H](O[C@@H]5O[C@H](CO)[C@@H](O)[C@H](O)[C@H]5O)[C@H]4O[C@@H]4O[C@H](CO)[C@@H](O)[C@H](O)[C@H]4O)[C@@H]2CC[C@]1(O[C@@H]1O[C@H](CO)[C@@H](O)[C@H](O[C@@H]2O[C@H](CO)[C@@H](O)[C@H](O)[C@H]2O)[C@H]1O[C@@H]1O[C@H](CO)[C@@H](O)[C@H](O)[C@H]1O)C3 [reb M, Rebaudioside M], which “sweetness relative to sugar” value [1] is on record?
Answer: Its value is “about 200 times sweeter than sugar”.

Question: What about the “solubility in acetone, benzene, chloroform, and ether” value [2] of the same molecule?
Answer: Its value is “insoluble”.

Question: What about the “solubility in diluted solutions of methanol, ethanol, n-propanol, and isopropanol” value [2] of the same molecule?
Answer: Its value is “soluble”.

Question: And the solubility in water ([2]; increases with an increase in temperature)?
Answer: Its solubility in water is “around 0.3%”.

Question: And the “heat and pH stability” value [3]?
Answer: The value was “heat and pH-stable”.

B1: Example 15: UGT91D2 lysate using pMAL plasmid and BL21 expression strain (protein, UniProt B3VI56 1-473, looked up)
UDP-glycosyltransferase 91D2: MATSDSIVDDRKQLHVATFPWLAFGHILPYLQLSKLIAEKGHKVSFLSTTRNIQRLSSHISPLINVVQLTLPRVQELPEDAEATTDVHPEDIPYLKKASDGLQPEVTRFLEQHSPDWIIYDYTHYWLPSIAASLGISRAHFSVTTPWAIAYMGPSADAMINGSDGRTTVEDLTTPPKWFPFPTKVCWRKHDLARLVPYKAPGISDGYRMGLVLKGSDCLLSKCYHEFGTQWLPLLETLHQVPVVPVGLLPPEVPGDEKDETWVSIKKWLDGKQKGSVVYVALGSEVLVSQTEVVELALGLELSGLPFVWAYRKPKGPAKSDSVELPDGFVERTRDRGLVWTSWAPQLRILSHESVCGFLTHCGSGSIVEGLMFGHPLIMLPIFGDQPLNARLLEDKQVGIEIPRNEEDGCLTKESVARSLRSVVVEKEGEIYKANARELSKIYNDTKVEKEYVSQFVDYLEKNTRAVAIDHES
modifications: MBP fusion from pMAL, E. coli lysate
notes: UGT91D2 lysate using pMAL plasmid and BL21 expression strain
Question: For B1, which “Transformation activity Rubusoside to Stevioside” value [4] is on record?
Answer: Its value is 9 mU mL^−1.

B2: Example 17: UGT91D2 lysate using pET30a+ plasmid and Tuner (DE3) expression strain (protein, UniProt B3VI56 1-473, looked up)
UDP-glycosyltransferase 91D2: MATSDSIVDDRKQLHVATFPWLAFGHILPYLQLSKLIAEKGHKVSFLSTTRNIQRLSSHISPLINVVQLTLPRVQELPEDAEATTDVHPEDIPYLKKASDGLQPEVTRFLEQHSPDWIIYDYTHYWLPSIAASLGISRAHFSVTTPWAIAYMGPSADAMINGSDGRTTVEDLTTPPKWFPFPTKVCWRKHDLARLVPYKAPGISDGYRMGLVLKGSDCLLSKCYHEFGTQWLPLLETLHQVPVVPVGLLPPEVPGDEKDETWVSIKKWLDGKQKGSVVYVALGSEVLVSQTEVVELALGLELSGLPFVWAYRKPKGPAKSDSVELPDGFVERTRDRGLVWTSWAPQLRILSHESVCGFLTHCGSGSIVEGLMFGHPLIMLPIFGDQPLNARLLEDKQVGIEIPRNEEDGCLTKESVARSLRSVVVEKEGEIYKANARELSKIYNDTKVEKEYVSQFVDYLEKNTRAVAIDHES
modifications: E. coli lysate
notes: UGT91D2 lysate using pET30a+ plasmid and Tuner (DE3) expression strain
Question: Which “Transformation activity Rubusoside to Stevioside” value [4] does the source give for B2 here?
Answer: Its value is 28 mU mL^−1.

B3: Example 18: UGT91D2 lysate using pET30a+ plasmid and ArcticExpress expression strain (protein, UniProt B3VI56 1-473, looked up)
UDP-glycosyltransferase 91D2: MATSDSIVDDRKQLHVATFPWLAFGHILPYLQLSKLIAEKGHKVSFLSTTRNIQRLSSHISPLINVVQLTLPRVQELPEDAEATTDVHPEDIPYLKKASDGLQPEVTRFLEQHSPDWIIYDYTHYWLPSIAASLGISRAHFSVTTPWAIAYMGPSADAMINGSDGRTTVEDLTTPPKWFPFPTKVCWRKHDLARLVPYKAPGISDGYRMGLVLKGSDCLLSKCYHEFGTQWLPLLETLHQVPVVPVGLLPPEVPGDEKDETWVSIKKWLDGKQKGSVVYVALGSEVLVSQTEVVELALGLELSGLPFVWAYRKPKGPAKSDSVELPDGFVERTRDRGLVWTSWAPQLRILSHESVCGFLTHCGSGSIVEGLMFGHPLIMLPIFGDQPLNARLLEDKQVGIEIPRNEEDGCLTKESVARSLRSVVVEKEGEIYKANARELSKIYNDTKVEKEYVSQFVDYLEKNTRAVAIDHES
modifications: E. coli lysate
notes: UGT91D2 lysate using pET30a+ plasmid and ArcticExpress expression strain
Question: For B3, which “Transformation activity Rubusoside to Stevioside” value [4] is on record?
Answer: The value was 21 mU mL^−1.

B4: UGT76G1var94: UGT76G1 variant, mutations Q266E_P272A_R334K_G348P_L379G (protein, UniProt Q6VAB4 1-458, looked up, variant Q266E P272A R334K G348P L379G)
UDP-glycosyltransferase 76G1: MENKTETTVRRRRRIILFPVPFQGHINPILQLANVLYSKGFSITIFHTNFNKPKTSNYPHFTFRFILDNDPQDERISNLPTHGPLAGMRIPIINEHGADELRRELELLMLASEEDEEVSCLITDALWYFAQSVADSLNLRRLVLMTSSLFNFHAHVSLPQFDELGYLDPDDKTRLEEQASGFPMLKVKDIKSAYSNWQILKEILGKMIKQTKASSGVIWNSFKELEESELETVIREIPAPSFLIPLPKHLTASSSSLLDHDRTVFEWLDQQAPSSVLYVSFGSTSEVDEKDFLEIARGLVDSKQSFLWVVRPGFVKGSTWVEPLPDGFLGERGKIVKWVPQQEVLAHPAIGAFWTHSGWNSTLESVCEGVPMIFSDFGGDQPLNARYMSDVLKVGVYLENGWERGEIANAIRRVMVDEEGEYIRQNARVLKQKADVSLMKGGSSYESLESLVSYISSL
Question: Which “Normalized conversion Reb D to Reb X after 22 h.” value [5] does the source give for B4 here?
Answer: Its value is 100%.

Question: And the “Normalized initial rate (0-4 h)” value [5]?
Answer: Its value is 100%.

Question: What about the “conversion Reb D to Reb M after 24 h” value [6] of the same molecule?
Answer: Its value is 72.0%.

Question: And the initial rate [6]?
Answer: Its initial rate is 7.9E+07 Reb M area/min.

B5: UGT76G1_Sc: UGT76G1 produced in S. cerevisiae, lysate (protein, UniProt Q6VAB4 1-458, looked up)
UDP-glycosyltransferase 76G1: MENKTETTVRRRRRIILFPVPFQGHINPILQLANVLYSKGFSITIFHTNFNKPKTSNYPHFTFRFILDNDPQDERISNLPTHGPLAGMRIPIINEHGADELRRELELLMLASEEDEEVSCLITDALWYFAQSVADSLNLRRLVLMTSSLFNFHAHVSLPQFDELGYLDPDDKTRLEEQASGFPMLKVKDIKSAYSNWQILKEILGKMIKQTKASSGVIWNSFKELEESELETVIREIPAPSFLIPLPKHLTASSSSLLDHDRTVFQWLDQQPPSSVLYVSFGSTSEVDEKDFLEIARGLVDSKQSFLWVVRPGFVKGSTWVEPLPDGFLGERGRIVKWVPQQEVLAHGAIGAFWTHSGWNSTLESVCEGVPMIFSDFGLDQPLNARYMSDVLKVGVYLENGWERGEIANAIRRVMVDEEGEYIRQNARVLKQKADVSLMKGGSSYESLESLVSYISSL
modifications: S. cerevisiae lysate
Question: With B5 as the molecule, how does the “Rebaudioside D conv. (reaction time)” value ([7]; 200 μL lysate, 0.5 mM substrate, 2.5 mM UDP-Glucose, pH 7.2) read?
Answer: The value was 85% (21 h.).

Question: And the “Rebaudioside M selectivity” value [7]?
Answer: Its value is 100%.
